Test results reported in patent publication US6410711.

What was measured:
CD40/Fc fusion protein [1] = biological target: T1, CD40/Fc fusion protein (human, UniProt P25942 21-193); assay: biosensor (BIAcore), CD40/Fc captured by goat anti-human IgG1 Fc; experiment 1; K2 (site 2)
T1 construct: extracellular domain; also called C40/Fc; s CD40/Fc; not shown: remainder of the human IgG1 Fc region, joined at a Bgl II site near the beginning of the hinge
Procedure: (§1) This example illustrates the binding affinities of several different CD40-L constructs. Affinity experiments were conducted by biospecific interaction analysis (BIA) using a biosensor, an instrument that combines a biological recognition mechanism with a sensing device or transducer. An exemplary biosensor is BIAcore™, from Pharmacia Biosensor AB (Uppsala, Sweden; see Fägerstam L. G., *Techniques in Protein Chemistry II*, ed. J. J. Villafranca, Acad. Press, NY, 1991). BIAcore™ uses the optical phenomenon surface plasmon resonance (Kretschmann and Raether, *Z. Naturforschung, Teil. A* 23:2135, 1968) to monitor the interaction of two biological molecules. Molecule pairs having affinity constants in the range 10^5 to 10^10 M^-1, and association rate constants in the range of 10^3 to 10^6 M^-1s^-1, are suitable for characterization with BLAcore™.
(§2) The biosensor chips were coated with goat anti-human IgG_1 Fc, which was used to bind CD40/Fc (prepared as described in Example 1) to the chip. The different constructs of CD40-L were then added at increasing concentrations; the chip was regenerated between the different constructs by the addition of sodium hydroxide. Two separate experiments were performed. […] The resultant data were analyzed to determine the affinity and association rate constants of the different CD40-L constructs. […]

CD40/Fc fusion protein [2] = biological target: T1, CD40/Fc fusion protein; assay: biosensor (BIAcore), CD40/Fc captured by goat anti-human IgG1 Fc; experiment 1
Procedure: as §1, §2

CD40/Fc fusion protein [3] = biological target: T1, CD40/Fc fusion protein; assay: biosensor (BIAcore), CD40/Fc captured by goat anti-human IgG1 Fc; experiment 1; K1 (site 1)
Procedure: as §1, §2

CD40/Fc fusion protein [4] = biological target: T1, CD40/Fc fusion protein; assay: biosensor assay substantially as Example 22 (captured CD40/Fc); yeast-expressed protein
Procedure: The biosensor chips were coated with goat anti-human IgG_1 Fc, which was used to bind CD40/Fc (prepared as described in Example 1) to the chip. The different constructs of CD40-L were then added at increasing concentrations; the chip was regenerated between the different constructs by the addition of sodium hydroxide. Two separate experiments were performed. In the first, the binding of a dimeric human CD40-L (Example 14), trimeric human CD40-L (Example 15), dimeric murine CD40-L (prepared substantially as described in Example 14 for human CD40-L/FC) and trimeric murine CD40-L (prepared substantially as described for the human CD40-L in Example 15) were compared. In the second experiment, the binding of trimeric human CD40-L was compared to the binding of two different preparations of monomeric human CD40-L prepared as described in Example 18. The resultant data were analyzed to determine the affinity and association rate constants of the different CD40-L constructs. Results are shown in Table 12 below, and in FIGS. 19A–19B
[a]Mutations are given as the residue present in the native peptide, the residue number, and the residue present in the mutein. Residue numbers for zipper domain mutations are relative to SEQ ID NO: 17. [b]Residue numbers for mutations in the CD40L domain are relative to SEQ ID NO: 12. […]

T1 sequence (P25942 other isoform, or with tags, fused parts or gaps limits assumed): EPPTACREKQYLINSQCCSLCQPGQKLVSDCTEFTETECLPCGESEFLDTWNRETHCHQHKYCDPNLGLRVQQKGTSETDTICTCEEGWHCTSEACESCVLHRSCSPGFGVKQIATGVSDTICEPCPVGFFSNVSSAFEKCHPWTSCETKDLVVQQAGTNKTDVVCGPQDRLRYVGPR

Binder | Ka (CD40/Fc fusion protein [1]) [M⁻¹] | Site 1 (mol/mol CD40/Fc) (CD40/Fc fusion protein [2]) | Site 2 (mol/mol CD40/Fc) (CD40/Fc fusion protein [2]) | Ka (CD40/Fc fusion protein [3]) [M⁻¹] | Ka (CD40/Fc fusion protein [4]) [M⁻¹]
trimeric murine CD40-L (ligand, The leader is not part of the secreted protein; Made in CHO cells; also called Murine Trimer; muCD40LT) not shown | 1.6e+08 | 0.02 | 0.44 | 6e+10 | 
wild type CD40 ligand/zipper domain fusion protein (WT) expressed in yeast (ligand) not shown |  |  |  |  | 7.7e+07
